Laboratory results from the DeepSol protein solubility set.

Assay: soluble on expression in E. coli; label from the status in PepcDB or PDB records

Sequence | soluble on expression in E. coli
MFMSTDEVRRAFLSFFESKGHQIVESSSLVPANDPTLLFTNAGMNQFKDCFLGLEKRAYTRATTAQRCVRAGGKHNDLENVGFTARHHTFFEMLGNFSFGDYFKEDAIQYAWEFLTDVLQLPKERLLVTVYETDDEAFDIWNKKVGIPADRIIRIGDKKGGKKFDSDNFWQMGDTGPCGPCTEIFYDHGDHIWGGPPGSPEEDGDRFIEIWNNVFMQFNRHADGTMEPLPKPSVDTGMGIERISAIMQGVHSNYEIDVFQTLIKAAADAIGYQDLTNQSLRVVADHIRSCAFLIVDGVMPSNEGRGYVLRRIIRRAVRHGNKLGAQGAFFHKLVGPLAEVMGTAGVELKKQQALVEKVLRIEEENFGRTLDRGMSILNDALDQLSGQVLDGETVFKLYDTYGFPADLTNDVARERGFSIDEAGFEQAMEEQRQRAREAGQFGTDYNSLIKSATNTEFCGYTASRGQSVVREMFVEGAEVSTLSAGDKAIIVLDNTPFYAESGGQCGDTGVLKTDAGIFHVEDTQKLGNAIAHHGVIAQGVLATGDQVDAIVDEKRRAAISLNHSATHLLHAALRKVLGEHVAQKGSLVRAETLRFDFSHLEAMTAAEIKEVERLVNQEVRRNHSIETNIMNIDEAKAKGAMALFGEKYDDQVRVLSMGDFSTELCGGIHASNTGDIGLFKIISEGGIAAGIRRIEAVTGEGALDYLDAQQAQHDAKVSEMAAKAKLLEKEIQQLKDKLAAKESAGLINQVKQIAGVNVLVAQLNGADNKALRGMVDDLKNQLSSGIIMLGNVAEGKVGLIAGVTNDLTNKVKAGELVNMVALQVGGKGGGRPDMAQAGGTDAHALPSALESVDAWIAERL | not soluble
MGHHHHHHSHMSSSAGSGHQPSQSRAIPTRTVAISDAAQLPHDYCTTPGGTLFSTTPGGTRIIYDRKFLLDRRNSPMAQTPPCHLPNIPGVTSPGTLIEDSKVEVNNLNNLNNHDRKHAVGDDAQFEMDI | soluble
AGNTSYFLRRKIFRKIMHITAPSHDQYGSSTLLVRLTNDVYLMEIMTFDFL | not soluble
AEDAKLRINGATVTSATNKVTNYIPGVTINLKKETTGAEKLTIQDQSDEKAASMITSFVNTYNALTSTMKTYTGKGTILQASAADLEANRALNNVFQHKKDGNTLFDFGISVDKEGVLKVDETAMKKMVAEDPTAVERFFFGIGGIGDELYQSLNKTFGSTGFISDETTSMTNEINKLNLKLTDITSRNDTLLTNITDQYNKWLEMMQAMQSDAMTLDALIDGMNSSNK | not soluble
MGSDKIHHHHHHMRPATALSVTACGPVSTSRPRAASRAAIRLSSGERRFLIDIDVSKPRLRPMTAMTPTLALERSAASGKVAPTPADLSITVRDRRFGRNSPPGRWWLAGDPVATAWHNALSATFPRGEAFFIEAVKAHREGASPKLEAEIRAFVKQEINHTREHIAFNRAAENAGYDIARIDKRVEEMLALTKDRPVILNLAATMALEHYTAMMAHEFLANPAHFAGAEQEAADMWRWHAIEEIEHKGVAYDTWLHATRDWSRWKRWKVKSLMMVVVTKNFITHRVEDTLDLLAQDGLTGAKWKWRLAAYLLWKPGVIRRILPAWLGYFLPGFHPWKHDDRALIGKADSEFTDAVMPG | not soluble
GSSGSSGGYFDAHALAMDYRSLGFRECLAEVARYLSIIEGLDASDPLRVRLVSHLNNYASQREASGPSSG | soluble
MSLSPGKKRAMINRDHPKLSISQQCKLVSLSRSAFYYTPAGIDADTLSMMKEIDRVFTKYPFFGSRQIAAYLRREGIVVGRHRVRRLMAKMGLEAVYKRPRTSQPHPQHPVFPYLLRKMVIDRPNQVWCADITFVPVRNGFLYLVAIMDWATRKVLSWRLSNTMHADFCVEALSEAIARYGPPEIMNTDQGSQFTGSAWITTLTEAGVRISMDGRGRYLDNIFIERLWRSLKQEAIYLEEINEGFRARRVIKGWMAFYNTSRPHSALDRQTPDDAYWAGLEERHAAEGHHHHHH | not soluble
REGITKNPTKRIIKDVETVDYPEKLIVPYIDTVHDRIVLELFRGCTRGCRFCQAGMIYRPIREKSVKRLKEILDKLVKNTGYDEISLSSLSTSDYSKLSELTDYLVDEYASNNIGISLPSLRLDNFSMEIADKIQQVRKSGLTFAPEAGTQRLRDVINKGVTEEDLENATERAFEMGWNSVKLYFMIGLPTETYEDLDGIAKLAYKV | not soluble
MGSDKIHHHHHHMNPLNLIECLEQKERYTYNEGLIIDFILSHTERVLHMSIYELAEATNSSTSTIVRLCKKTETSGFKEFKIRLSRDLEIHYQAIRNVDANMPFLAQDSDLLIAKKIAQLTTETVQSTQQLLTEAMLNKSIDLLLTAENILAVGVSNSYIRLTDFQTKLLRIQLFIHLIPYQAEQFYLAINATKNDVAILVSYSGNTAEIVNEARIFAEGGTPIIAITSDLNSQLAKYATVILPIPNVEHADFKVSTFSSQLAIEYILNVLYSCIFSRNFDKNYTSQKNTPTSILKF | not soluble
MAPTRAVIPDDFELPVDAFDIPICYDGDLSGVVIPEGLVRDRVRRLAKDIHAEIGNKPIALLCVLKGSYKFFTALVEELTNARSSCPEPMTVDFIRVKSYEDQMSTGQIQIMGLSNLDELKGKSVLVVDDISDTGRTLAKLLSTLHETGVEKTWTALLLSKRVKRVVDVPEDFVAFEIPDKFIVGYGLDYNQKFRDLGHICVMSPAGIEKYKSE | not soluble
MAANIQQQFGEQLLRAAQVVEEQIDQEMNKLENLEEDDLEVIRRQRMEQMKKAQKDRIEMLSHGHGKYEEVADEKEFFEATKKSDKVVCLFYLPGNFRCKIVDKHFEILARKHVGTRFIHVNAEKVHFLTTRLNIRVIPSIAIVVKQQTVDYIRGFDELGGKDEFTTETMENRLARSEVLTVEKKHTAPAKKKIIRSGVEEYDNEEDW | not soluble
MSLKLTVVGLGYIGLPTSIMFAKHGVDVLGVDINQQTIDKLQSGQISIEEPGLQEVYEEVLSSGKLKVSTTPEASDVFIIAVPTPNNDDQYRSCDISLVMRALDSILPFLEKGNTIIVESTIAPKTMDDFVKPVIENLGFTIGEDICLVHCPERVLPGKILEELVHNNRIIGGVTKACIEAGKYVYRTFVQGEMIETDARTAEMSKLMENTYRDVNIALANELTKICNNLNINVLDVIEMANKHPRVNIHQPGPGVGGHCLAVDPYFIIAKDPENAKLIQTGREINNSMPAYVVDTTKQIIKALSGNKVTVFGLTYKGDVDDIRESPAFDIYELLNQEPDIEVCAYDPHVELDFVEHDMSHAVKDASLVLILSDHSEFKNLSDSHFDKMKHKVIFDTKNVVKSSFEDVSYYNYGNIFNFIDKEGHHHHHH | soluble
MQYINIANRGVKSLSPYQAGKPIEELERELGISNIVKLASNENPFGFPESAKKAIFEQLDKLTRYPDANGFELKQTIAKKFGVQPNQITLGNGSNDLLELFAHTFATEGDEIMYSQYAFIVYPLVTKAINAIVKEIPAKNWGHDLQGFLTALSDKTKLIYIANPNNPTGNFLTSQEIEDFLAEVPENVIVVLDEAYTEFTRSEERVDSFSLLKKYSNLIISRSLSKAYGLAGLRIGYAVSNPEIADLLNRVRQPFNCNSLALTAAVAVMNDDKFVEKVAENNRIEMRRYEDFCQKNQLDYIPSKGNFITIDFKQPAAPIYDALLREGVIVRPIAGYGMPNHLRISIGLPEENDKFFTALSKVLKFA | not soluble
MRQVDFFTLRLFLSAVEEGQIGRAALRENIAPSAATKRIQELEDVVGLRLLERTPKGVILSPAGEVLVRHIRQIFTNVDELRAELSAFSEGVRGEVSVASARSIIAPYLAHEFGAYIRDYPLVDLIVREVENAAIVQAVAQGDADIGVFAAAPALDLSGVDVMPYRQDRMVVVMSHGHRLAQRQSVTFEDLLSENLIVPAALHMALRTAADRLGREFEPKYGVTSAGVAISLAQEGLGVTIQPECLLDLKVFEHAVGVELAESWANRSIHIATARGRAAGPAANLLLKQLLDRPRALSSVSD | not soluble
MSHLYDPTTQYYTGEYPKQKQPAPGVQAKMTPVPDCGEKSYVGSGRLKDRKALVTGGDSGIGRAAAIAYAREGADVAINYLPAEEEDAQQVKALIEECGRKAVLLPGDLSDESFARSLVHKAREALGGLDILALVAGKQTAIPEIKDLTSEQFQQTFAVNVFALFWITQEAIPLLPKGASIITTSSIQAYQPSPHLLDYAATKAAILNYSRGLAKQVAEKGIRVNIVAPGPIWTALQISGGQTQDKIPQFGQQTPMKRAGQPAELAPVYVYLASQESSYVTAEVHGVCGGEHLG | not soluble
MYNVMITGAGKIGSLIACLLADSGSYQVHLADLEFNGSDVTRLLTALPEIKTVALDVKDEQSTQAYLQKHNIIAVISSLPYFLNTHVAKAAKAAKAHYFDLTEDTSVTEAVKAIAQNAETAFVPQCGLAPGFISIAANSLMQEFEKCHHARLRVGALPQRANNALHYSLTWSTDG | not soluble
MMYIDNEVLEKMIMTMVEGFNRLEKKLDRMNRLKDCLDGDTLLDNCDLAQLLGVTQRTIARYREKGLIRYYQTDENGKNFYRSSEIQDFLRHRGKKK | not soluble
MGSSHHHHHHSSGRENLYFQGHMSHRDTLFSAPIARLGDWTFDERVAEVFPDMIQRSVPGYSNIISMIGMLAERFVQPGTQVYDLGCSLGAATLSVRRNIHHDNCKIIAIDNSPAMIERCRRHIDAYKAPTPVDVIEGDIRDIAIENASMVVLNFTLQFLEPSERQALLDKIYQGLNPGGALVLSEKFSFEDAKVGELLFNMHHDFKRANGYSELEISQKRSMLENVMLTDSVETHKARLHNAGFEHSELWFQCFNFGSLVALKAEDAA | soluble
MSLDPRKVNELRAFVKMCKQDPSVLHTEEMRFLREWVESMGGKVPPATQKAKSEENTKEEKPDSKKVEEDLKADEPSSEESDLEIDKEGVIEPDTDAPQEMGDENAEITEEMMDQANDKKVAAIEALNDGELQKAIDLFTDAIKLNPRLAILYAKRASVFVKLQKPNAAIRDCDRAIEINPDSAQPYKWRGKAHRLLGHWEEAAHDLALACKLDYDEDASAMLKEVQPRAQKIAEHRRKYERKREEREIKERIERVKKAREEHERAQREEEARRQSGAQYGSFPGGFPGGMPGNFPGGMPGMGGGMPGMAGMPGLNEILSDPEVLAAMQDPEVMVAFQDVAQNPANMSKYQSNPKVMNLISKLSAKFGGQAEGHHHHHH | soluble
MGSDKIHHHHHHMQPTYNIDNPNLSYEAKRDLWRIGFGLQKVDNLVPSAYMESLAEKQSRGELTYEQVYEDATAYHHTIDASTEEADLVSLRIVELLSRRGFSFSPAILLAIHKELFQDIFEPSIPVGQFRQTNITKNEPVLNGESVVYSDYSMIQMTLDYDFNQEKQVAYATLTQADMVKKIQHFISGIWQIHPFREGNTRTVTVFLIQYLREFGFDIDNTPFQQHSKYFRDALVLDNAKILQRRPEFLTAFFENLLLGGQNDLSSEKMYLDLDLDLS | not soluble
MNIFTEAAKLEEQNCPFAMAQIVDSRGSTPRHSAQMLVRADGSIVGTIGGGMVERKVIEESLQALQERKPRLFHGRMARNGADAVGSDCGGAMSVFISVHGMRPRLVLIGAGHVNRAIAQSAALLGFDIAVADIYRESLNPELFPPSTTLLHAESFGAAVEALDIRPDNFVLIATNNQDREALDKLIEQPIAWLGLLASRRKVQLFLRQLREKGVAEEHIARLHAPVGYNIGAETPQEIAISVLAEILQVKNNAPGGLMMKPSHPSGHQLVVIRGAGDIASGVALRLYHAGFKVIMLEVEKPTVIRCTVAFAQAVFDGEMTVEGVTARLATSSAEAMKLTERGFIPVMVDPACSLLDELKPLCVVDAILAKQNLGTRADMAPVTIALGPGFTAGKDCHAVIETNRGHWLGQVIYSGCAQENTGVPGNIMGHTTRRVIRAPAAGIMRSNVKLGDLVKEGDVIAWIGEHEIKAPLTGMVRGLLNDGLAVVGGFKIGDIDPRGETADFTSVSDKARAIGGGVLEALMMLMHQGVKATKEVLEVALEHHHHHH | not soluble
